Data taken from patent US20230212319A1, “NOVEL ANTIGEN BINDING DOMAINS AND SYNTHETIC ANTIGEN RECEPTORS INCORPORATING THE SAME” (University of Southern California, priority 2020, published 2023).

These molecules were tested on RAJI cells (assay: JNG assay, co-culture with RAJI cells). Settings: co-culture with RAJI cells.
Format: cell-based
Procedure: Cellular supernatant is collected and assayed for the induction of cytokines (e.g., IL2).
JNG (Jurkat cells expressing EGFP under an NFAT promoter) were infected with lentiviral vectors encoding different single chain and multi-chain SARs by spinfection in the presence of 8 µg/ml of Polybrene® (Sigma, Catalog no. H9268). The Jurkat-NFAT-GFP cells are engineered in such a way that the IL-2 promoter, which carries NFAT binding sites, is cloned upstream of the GFP gene. These cells have been used to study signaling via TCR and CAR. The different SARs were stably expressed in Jurkat NFAT-GFP cells by lentiviral mediated gene transfer, followed by selection with puromycin or blasticidin. No drug selection was used in case the construct lacked an antibiotic resistance gene. The SAR-expressing Jurkat-NFAT-GFP cells were cocultured with the target cells at E:T ratio of approximately 1:2 for approximately 4 hours to 18 hours. When the interaction between SIRs and their target antigen results in activation of the NFAT pathway, GFP expression is induced. […] GFP expression was monitored by FACS analysis. The Jurkat-NFAT-GFP (parental) cells were used as control. The structure of different constructs can be determined based on their names. […] The sequence of the other constructs in the table can be similarly determined from their names and by referring to the different Tables of this disclosure that provide the names and SEQ ID NO of the different modules. Alternatively, the composition and modular architecture of the different SAR constructs can be determined from their sequences by bioinformatics tools, including using nucleic acid and amino acids homology searches. A SAR is considered positive in the assay in case the SAR expressing Jurkat-NFAT-GFP cells show greater % GFP positive cells when cultured with the target cell line as compared to parental Jurkat-NFAT-GFP cells. […] In general, the number +/-, +, 2+, 3+, 4+, 5+ refer to approximately 5%, 10%, 20%, 30%, 40% and 50% GFP positive cells. The % of GFP induction in the above assay is dependent not only the relative strength of the SAR but also, among other factors, on the relative level of expression of the SAR in the JNG cells and the relative level of expression of the target antigen in the target cell line. To control for the difference in gene transduction efficiency of the different SAR constructs, the experiment was conducted with JNG cells transduced with SAR constructs co-expressing a drug resistance gene (e.g., puromycin or PAC) followed by drug selection to generate a stable population of SAR-expressing cells. It is to be noted that the drug resistance gene (e.g., PAC) in the SAR constructs is optional and in vivo studies were conducted with SAR constructs lacking the PAC gene.

Row | Molecule | GFP induction / activity
1 | SEQ ID NO: 22252: bispecific SAR on CD19 targeted SIR backbone comprising the receptor binding domain of the ligand 4-1BB (protein) MALPVTALLLPLALLLHAARPDIQMTQSPSSLSASVGDRVTITCKASDHINNWLAWYQQKPGQAPKLLIYGATTLETGVPSRFSGSGSGTDYTLTISSLQPEDFATYYCQQSWNTPWTFGQGTKLEIKRLEDLKNVFPPEVAVFEPSEAEISHTQKATLVCLATGFYPDHVELSWWVNGKEVHSGVCTDPQPLKEQPALNDSRYCLSSRLRVSATFWQNPRNHFRCQVQFYGLSENDEWTQDRAKPVTQIVSAEAWGRADCGFTSESYQQGVLSATILYEILLGKATLYAVLVSALVLMAMVKRKDSRGRAKRSGSGATNFSLLKQAGDVEENPGPTSATMDWIWRILFLVGAATGAHSGPGLLDLRQGMFAQLVAQNVLLIDGPLSWYSDPGLAGVSLTGGLSYKEDTKELVVAKAGVYYVFFQLELRRVVAGEGSGSVSLALHLQPLRSAAGAAALALTVDLPPASSEARNSAFGFQGRLLHLSAGQRLGVHLHTEARARHAWQLTQGATVLGLFRVTPEIPAGLPSPRSEGSGGGGSGGGGSGGGGSFEQVQLQQPGAELVKPGASVKMSCKASGYAFSSYWINWMKQKPGQGLEWIGQIYPGDGDTNYNGKFKGRATLTADTSSSTAYMQLSSLTSEDSAVYFCARSITTVVGCAMDYWGQGTSVTVSSTRIQNPDPAVYQLRDSKSSDKSVCLFTDFDSQTNVSQSKDSDVYITDKCVLDMRSMDFKSNSAVAWSNKSDFACANAFNNSIIPEDTFFPSPESSCDVKLVEKSFETDTNLNFQNLSVIGFRILLLKVAGFNLLMTLRLWSSRAKRSGSGVKQTLNFDLLKLAGDVESNPGPSRGHMTEYKPTVRLATRDDVPRAVRTLAAAFADYPATRHTVDPDRHIERVTELQELFLTRVGLDIGKVWVADDGAAVAVWTTPESVEAGAVFAEIGPRMAELSGSRLAAQQQMEGLLAPHRPKEPAWFLATVGVSPDHQGKGLGSAVVLPGVEAAERAGVPAFLETSAPRNLPFYERLGFTVTADVEVPEGPRTWCMTRKPGA | retained the ability to respond
2 | SEQ ID NO: 22253: bispecific SAR on CD19 targeted SIR backbone comprising the receptor binding domain of the ligand APRIL (protein) MALPVTALLLPLALLLHAARPDIQMTQSPSSLSASVGDRVTITCKASDHINNWLAWYQQKPGQAPKLLIYGATTLETGVPSRFSGSGSGTDYTLTISSLQPEDFATYYCQQSWNTPWTFGQGTKLEIKRLEDLKNVFPPEVAVFEPSEAEISHTQKATLVCLATGFYPDHVELSWWVNGKEVHSGVCTDPQPLKEQPALNDSRYCLSSRLRVSATFWQNPRNHFRCQVQFYGLSENDEWTQDRAKPVTQIVSAEAWGRADCGFTSESYQQGVLSATILYEILLGKATLYAVLVSALVLMAMVKRKDSRGRAKRSGSGATNFSLLKQAGDVEENPGPTSATMDWIWRILFLVGAATGAHSGPVLHLVPINATSKDDSDVTEVMWQPALRRGRGLQAQGYGVRIQDAGVYLLYSQVLFQDVTFTMGQVVSREGQGRQETLFRCIRSMPSHPDRAYNSCYSAGVFHLHQGDILSVIIPRARAKLNLSPHGTFLGFVKLGSGGGGSGGGGSGGGGSFEQVQLQQPGAELVKPGASVKMSCKASGYAFSSYWINWMKQKPGQGLEWIGQIYPGDGDTNYNGKFKGRATLTADTSSSTAYMQLSSLTSEDSAVYFCARSITTVVGCAMDYWGQGTSVTVSSTRIQNPDPAVYQLRDSKSSDKSVCLFTDFDSQTNVSQSKDSDVYITDKCVLDMRSMDFKSNSAVAWSNKSDFACANAFNNSIIPEDTFFPSPESSCDVKLVEKSFETDTNLNFQNLSVIGFRILLLKVAGFNLLMTLRLWSSRAKRSGSGVKQTLNFDLLKLAGDVESNPGPSRGHMTEYKPTVRLATRDDVPRAVRTLAAAFADYPATRHTVDPDRHIERVTELQELFLTRVGLDIGKVWVADDGAAVAVWTTPESVEAGAVFAEIGPRMAELSGSRLAAQQQMEGLLAPHRPKEPAWFLATVGVSPDHQGKGLGSAVVLPGVEAAERAGVPAFLETSAPRNLPFYERLGFTVTADVEVPEGPRTWCMTRKPGA | retained the ability to respond
3 | CD8SP-CD19-hu-mROO5-1-vL-IgCL-TCRg-6MD-F-P2A-SP-CD19-hu-mROO5-1-vH-hTCR-delta-F-F2A-PAC (protein) MALPVTALLLPLALLLHAARPDIQMTQSPSSLSASVGDRVTITCKASDHINNWLAWYQQKPGQAPKLLIYGATTLETGVPSRFSGSGSGTDYTLTISSLQPEDFATYYCQQSWNTPWTFGQGTKLEIKRLEGQPKANPTVTLFPPSSEELQANKATLVCLISDFYPGAVTVAWKADGSPVKAGVETTKPSKQSNNKYAASSYLSLTPEQWKSHRSYSCQVTHEGSTVEKTVAPTECSPIKTDVITMDPKDNCSKDANDTLLLQLTNTSAYYMYLLLLLKSVVYFAIITCCLLRRTAFCCNGEKSRAKRSGSGATNFSLLKQAGDVEENPGPTSMDWIWRILFLVGAATGAHSFEQVQLQQPGAELVKPGASVKMSCKASGYAFSSYWINWMKQKPGQGLEWIGQIYPGDGDTNYNGKFKGRATLTADTSSSTAYMQLSSLTSEDSAVYFCARSITTVVGCAMDYWGQGTSVTVSSTRSQPHTKPSVFVMKNGTNVACLVKEFYPKDIRINLVSSKKITEFDPAIVISPSGKYNAVKLGKYEDSNSVTCSVQHDNKTVHSTDFEVKTDSTDHVKPKETENTKQPSKSCHKPKAIVHTEKVNMMSLTVLGLRMLFAKTVAVNFLLTAKLFFLRAKRSGSGVKQTLNFDLLKLAGDVESNPGPSRGHMTEYKPTVRLATRDDVPRAVRTLAAAFADYPATRHTVDPDRHIERVTELQELFLTRVGLDIGKVWVADDGAAVAVWTTPESVEAGAVFAEIGPRMAELSGSRLAAQQQMEGLLAPHRPKEPAWFLATVGVSPDHQGKGLGSAVVLPGVEAAERAGVPAFLETSAPRNLPFYERLGFTVTADVEVPEGPRTWCMTRKPGA | robust GFP induction
4 | CD8SP-BCMA-FHVH-93-G4S-hu-mROO5-vL-[hTCRb-S57C]-F-P2A-IgHSP-CD20-VHH-USC1-2HCD26-G4S-AFP-Va-14-3-AI-[hTCRa-T48C]-F-F2A-PAC (protein) MALPVTALLLPLALLLHAARPACEVQLLESGGGLIQPGGSLRLSCAASGFTFSSHAMTWVRQAPGKGLEWVSAISGSGDYTHYADSVKGRFTISRDNSKNTVYLQMNSLRAEDSAVYYCAKDEDGGSLLGHRGQGTLVTVSSGTGGGGSGGGGSGGGGSEFDIQMTQSPSSLSASVGDRVTITCKASDHINNWLAWYQQKPGQAPKLLIYGATTLETGVPSRFSGSGSGTDYTLTISSLQPEDFATYYCQQSWNTPWTFGQGTKLEIKRLEDLKNVFPPEVAVFEPSEAEISHTQKATLVCLATGFYPDHVELSWWVNGKEVHSGVCTDPQPLKEQPALNDSRYCLSSRLRVSATFWQNPRNHFRCQVQFYGLSENDEWTQDRAKPVTQIVSAEAWGRADCGFTSESYQQGVLSATILYEILLGKATLYAVLVSALVLMAMVKRKDSRGRAKRSGSGATNFSLLKQAGDVEENPGPTSATMDWIWRILFLVGAATGAHSGPEVQLVESGGGLVQAGGSLRLSCAASGRTFSMGWFRQAPGKEREFVAAITYSGGSPYYADSVKGRFTISRDNAKNTVYLQMNSLKPEDTAVYYCAANPTYGSDWNAENWGQGTQVTVSSGSGGGGSGGGGSGGGGSFEQKEVEQNSGPLSVPEGAIASLNCTYSDRGSQSFFWYRQYSGKSPELIMSIYSNGDKEDGRFTAQLNKASQYVSLLIRDSQPSDSATYLCAVNSQSGVALNFGKGTSLLVTPHIQNPDPAVYQLRDSKSSDKSVCLFTDFDSQTNVSQSKDSDVYITDKCVLDMRSMDFKSNSAVAWSNKSDFACANAFNNSIIPEDTFFPSPESSCDVKLVEKSFETDTNLNFQNLSVIGFRILLLKVAGFNLLMTLRLWSSRAKRSGSGVKQTLNFDLLKLAGDVESNPGPSRGHMTEYKPTVRLATRDDVPRAVRTLAAAFADYPATRHTVDPDRHIERVTELQELFLTRVGLDIGKVWVADDGAAVAVWTTPESVEAGAVFAEIGPRMAELSGSRLAAQQQMEGLLAPHRPKEPAWFLATVGVSPDHQGKGLGSAVVLPGVEAAERAGVPAFLETSAPRNLPFYERLGFTVTADVEVPEGPRTWCMTRKPGA | robust GFP induction activity
